Results reported in patent US20130336885A1 (Genentech, published 2013).

Legend:
[1] = biological target: T1, gD epitope-tagged LgR5 324-907 (amino acids 324-907 of SEQ ID NO: 67) on transiently transfected 293 cells (human, UniProt O75473 324-907); experiment: FACS on transiently transfected 293 cells
T1 sequence: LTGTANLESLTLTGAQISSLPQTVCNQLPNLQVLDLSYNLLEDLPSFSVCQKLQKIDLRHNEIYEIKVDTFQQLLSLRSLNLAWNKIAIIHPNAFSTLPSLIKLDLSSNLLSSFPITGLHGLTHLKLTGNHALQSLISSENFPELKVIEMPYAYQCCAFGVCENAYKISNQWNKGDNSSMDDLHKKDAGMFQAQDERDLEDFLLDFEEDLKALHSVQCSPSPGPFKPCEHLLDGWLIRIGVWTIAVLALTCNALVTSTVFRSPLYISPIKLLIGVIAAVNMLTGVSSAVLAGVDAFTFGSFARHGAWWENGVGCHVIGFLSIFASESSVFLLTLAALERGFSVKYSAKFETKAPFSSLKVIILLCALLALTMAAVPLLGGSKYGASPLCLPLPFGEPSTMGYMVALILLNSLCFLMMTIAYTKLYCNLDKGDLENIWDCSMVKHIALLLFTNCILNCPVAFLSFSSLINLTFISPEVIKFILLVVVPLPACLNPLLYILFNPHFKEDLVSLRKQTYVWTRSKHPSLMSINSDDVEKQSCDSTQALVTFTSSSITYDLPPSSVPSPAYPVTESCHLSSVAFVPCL

[2] = biological target: T2, gD epitope-tagged LgR5 424-907 (amino acids 424-907 of SEQ ID NO: 67) on transiently transfected 293 cells (human, UniProt O75473 424-907); experiment: FACS on transiently transfected 293 cells
T2 sequence: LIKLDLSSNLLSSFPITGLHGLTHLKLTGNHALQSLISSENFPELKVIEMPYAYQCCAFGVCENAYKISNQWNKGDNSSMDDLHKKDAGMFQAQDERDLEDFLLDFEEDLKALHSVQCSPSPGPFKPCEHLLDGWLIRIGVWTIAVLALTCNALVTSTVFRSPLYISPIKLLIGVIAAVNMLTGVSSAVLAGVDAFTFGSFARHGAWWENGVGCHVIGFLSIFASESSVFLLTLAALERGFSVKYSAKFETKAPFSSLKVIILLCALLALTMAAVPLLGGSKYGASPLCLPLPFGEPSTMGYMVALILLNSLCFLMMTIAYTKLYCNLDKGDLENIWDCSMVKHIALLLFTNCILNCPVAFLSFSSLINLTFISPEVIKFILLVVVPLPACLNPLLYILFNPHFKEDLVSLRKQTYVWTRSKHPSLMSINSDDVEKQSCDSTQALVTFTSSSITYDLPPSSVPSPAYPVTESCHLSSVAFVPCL

[3] = biological target: T3, human LgR5 ECD (amino acids 22-557 fused to His-Fc expressed in a baculovirus system, or amino acids 22-558 … (human, UniProt O75473 22-557)); experiment: SPR (BIAcore-3000), antibody captured by anti-human Fc, LgR5 ECD-Fc injected
T3 construct: not shown: C-terminal His-tagged Fc
T3 sequence: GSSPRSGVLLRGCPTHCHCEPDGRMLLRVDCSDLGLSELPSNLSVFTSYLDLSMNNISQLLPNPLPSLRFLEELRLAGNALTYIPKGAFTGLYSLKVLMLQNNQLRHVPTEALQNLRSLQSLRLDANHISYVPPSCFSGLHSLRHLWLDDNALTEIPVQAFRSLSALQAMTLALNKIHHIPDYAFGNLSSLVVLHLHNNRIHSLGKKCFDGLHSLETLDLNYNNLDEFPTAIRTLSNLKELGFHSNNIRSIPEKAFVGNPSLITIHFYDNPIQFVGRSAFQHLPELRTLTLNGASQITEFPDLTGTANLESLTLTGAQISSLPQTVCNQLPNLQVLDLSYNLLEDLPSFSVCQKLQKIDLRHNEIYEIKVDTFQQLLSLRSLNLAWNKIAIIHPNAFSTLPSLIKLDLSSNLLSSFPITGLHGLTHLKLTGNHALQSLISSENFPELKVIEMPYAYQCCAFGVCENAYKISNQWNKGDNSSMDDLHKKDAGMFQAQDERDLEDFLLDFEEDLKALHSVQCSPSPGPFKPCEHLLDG

[4] = biological target: T3, human LgR5 ECD (amino acids 22-557 …); experiment: BIAcore-3000 SPR, IgG captured on goat anti-human Fc, human LgR5 ECD-Fc injected, 25 C, 1:1 Langmuir model
Protocol: The affinity of each 8E11 IgG variant for human LgR5 was determined by surface plasmon resonance using a BIAcore™-3000. BIAcore™ research grade CMS chips were activated with 1-ethyl-3-(3-dimethylaminopropyl) carbodiimide (EDC) and N-hydroxysuccinimide (NHS) reagents according to the supplier's instructions. Goat anti-human Fc IgGs were coupled to the chips to achieve approximately 10,000 response units (RU) in each flow cell. Unreacted coupling groups were blocked with 1M ethanolamine. For kinetics measurements, anti-LGR5 antibodies were captured to achieve approximately 300 RU. Two-fold serial dilutions of human LgR5ECD (amino acids 22-557 fused to His-Fc expressed in a baculovirus system, or amino acids 22-558 fused to Fc expressed from CHO cells; 125 nM to 0.49 nM) were injected in HBS-P buffer (0.01M HEPES pH7.4, 0.15M NaCl, 0.005% surfactant P20) at 25° C. with a flow rate of 30 μl/min. Association rates (kₒₙ) and dissociation rates (koff) were calculated using a 1:1 Langmuir binding model (BIAcore™ Evaluation Software version 3.2). The equilibrium dissociation constant (Kd) was calculated as the ratio koff/kₒₙ.

Binder	binding result [1]	binding result [2]	Kd [3] [nM]	Kd [4] [nM]	koff [4] [s⁻¹]	kon [4] [M⁻¹ s⁻¹]
chimeric monoclonal antibody 8E11 (antibody, human IgG1, V domains shown, also called ch8E11; chimeric 8E11) VH: QVQLQQSGTELMKPGASVKISCKATGYTFSAYWIEWIKQRPGHGLEWIGEILPGSDSTDYNEKFKVKATFSSDTSSNTVYIQLNSLTYEDSAVYYCARGGHYGSLDYWGQGTTLKVSS VL: NIVLTQSPASLAVSLGQRATISCRASESVDNYGNSFMHWYQQKPGQPPKLLIYLASNLESGVPARFSGSGSRTDFTLTIDPVEADDAATYYCQQNYEDPFTFGSGTKVEIKR	no binding (tested: 10 µg/ml)	no binding (tested: 10 µg/ml)	2.4	3	0.00064	210000
humanized monoclonal antibody 8E11.v2 (antibody, human IgG1, kappa, V domains shown, It was assessed as an IgG; also called hu8E11.v2; hu8E11v2) VH: EVQLVQSGAEVKKPGASVKVSCKASGYTFSAYWIEWVRQAPGQGLEWIGEILPGSDSTDYNEKFKVRATFTSDTSTSTVYLELSSLRSEDTAVYYCARGGHYGSLDYWGQGTLVTVSS VL: DIVMTQSPDSLAVSLGERATINCRASESVDNYGNSFMHWYQQKPGQPPKLLIYLASNLESGVPDRFSGSGSGTDFTLTISSLQAEDVAVYYCQQNYEDPFTFGQGTKVEIKR	no binding (tested: 10 µg/ml)	no binding (tested: 10 µg/ml)	–	3.1	0.000853	279000
human antibody YW353 (antibody, human IgG1, kappa, V domains shown, also called huYW353) VH: EVQLVESGGGLVQPGGSLRLSCAASGFTFTSYSISWVRQAPGKGLEWVAEIYPPGGYTDYADSVKGRFTISADTSKNTAYLQMNSLRAEDTAVYYCAKARLFFDYWGQGTLVTVSS VL: DIQMTQSPSSLSASVGDRVTITCRASQDVSTAVAWYQQKPGKAPKLLIYSASFLYSGVPSRFSGSGSGTDFTLTISSLQPEDFATYYCQQSYTTPPTFGQGTKVEIKR	no binding (tested: 10 µg/ml)	no binding (tested: 10 µg/ml)	1.6	–	–	–
